Changes are numbered by the printed parent chain. Numbers in names are those of the source. Where two headings read alike, the source gives them in different places. One block for each binder: values may come before it.
What was measured:
[1] = target: T1, human FcγRIIb (human, UniProt P31994 43-217, limits assumed); test: SPR (Biacore); ratio against IgG1
T1 construct: also called FcγIIB
T1 sequence: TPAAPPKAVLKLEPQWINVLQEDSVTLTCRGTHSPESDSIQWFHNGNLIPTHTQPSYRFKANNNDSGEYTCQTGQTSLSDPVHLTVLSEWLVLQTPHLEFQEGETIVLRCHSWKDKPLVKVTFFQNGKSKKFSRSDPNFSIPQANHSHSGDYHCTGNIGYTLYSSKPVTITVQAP

[2] = target: T1, human FcγRIIb; test: SPR (Biacore); ratio against IgG1; remark: listed apart in the source
[3] = target: T1, human FcγRIIb; test: SPR (Biacore), antibody captured, FcγR as analyte
[4] = target: T1, human FcγRIIb; test: SPR (Biacore), antibody captured, FcγR as analyte; remark: listed apart in the source
[5] = target: T2, human FcγRIa (human, UniProt P12314 16-292, limits assumed); test: SPR (Biacore), antibody captured, FcγR as analyte
T2 construct: also called CD64

[6] = target: T3, human FcγRIIa type R (human, UniProt P12318 36-217); test: SPR (Biacore), antibody captured, FcγR as analyte
T3 construct: also called FcγRIIaR; FcγRIIa(R)
T3 chain: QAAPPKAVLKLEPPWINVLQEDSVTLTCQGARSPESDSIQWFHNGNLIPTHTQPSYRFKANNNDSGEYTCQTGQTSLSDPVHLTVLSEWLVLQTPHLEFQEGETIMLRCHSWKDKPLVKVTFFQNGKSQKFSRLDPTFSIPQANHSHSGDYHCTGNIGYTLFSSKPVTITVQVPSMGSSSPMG

[7] = target: T4, human FcγRIIa type H (human, UniProt P12318 36-217); test: SPR (Biacore), antibody captured, FcγR as analyte
T4 construct: also called FcγRIIaH; FcγRIIa(H)
T4 sequence: T3 chain with R133H

[8] = target: T1, human FcγRIIb; test: SPR (Biacore), antibody captured, FcγR as analyte; remark: listed apart in the source
[9] = target: T5, human FcγRIIIa type V (human, UniProt P08637 17-208, limits assumed); test: SPR (Biacore), antibody captured, FcγR as analyte
T5 construct: also called FcγRIIIaV; FcγRIIIa(V)
T5 sequence (P08637 other isoform, or with tags, fused parts or gaps limits assumed): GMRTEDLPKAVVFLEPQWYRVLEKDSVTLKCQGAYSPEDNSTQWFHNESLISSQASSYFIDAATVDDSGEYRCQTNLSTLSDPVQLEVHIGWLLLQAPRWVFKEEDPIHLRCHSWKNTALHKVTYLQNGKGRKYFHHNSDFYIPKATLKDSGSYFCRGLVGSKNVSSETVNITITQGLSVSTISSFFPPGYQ

[10] = target: T1, human FcγRIIb; test: SPR (Biacore); ratio against parent IL6R-F11/IL6R-L
[11] = target: T2, human FcγRIa; test: SPR (Biacore), binding amount relative to IL6R-BF648/IL6R-L = 100
[12] = target: T3, human FcγRIIa type R; test: as above
[13] = target: T4, human FcγRIIa type H; test: as above
[14] = target: T1, human FcγRIIb; test: as above
[15] = target: T5, human FcγRIIIa type V; test: as above
[16] = target: T1, human FcγRIIb; test: SPR (Biacore); KD for FcγRIIaH divided by KD for FcγRIIb of the same antibody
[17] = target: T1, human FcγRIIb; test: SPR (Biacore); KD for FcγRIIaR divided by KD for FcγRIIb of the same antibody
[18] = target: T6, human FcRn (soluble human FcRn complexed with β2-microglobulin) (human, UniProt P61769 21-119, limits assumed); test: SPR, antibody captured by Protein L, human FcRn as analyte, pH 7.0, 25 C
T6 construct: also called hFcRn

[19] = target: T7, mouse FcγRI (mouse, UniProt P26151 25-297); test: SPR, antibody captured by Protein L, mouse FcγR as analyte, pH 7.4, 25 C
T7 construct: bought; also called mFcgRI; mFcgR 1
T7 sequence (looked up): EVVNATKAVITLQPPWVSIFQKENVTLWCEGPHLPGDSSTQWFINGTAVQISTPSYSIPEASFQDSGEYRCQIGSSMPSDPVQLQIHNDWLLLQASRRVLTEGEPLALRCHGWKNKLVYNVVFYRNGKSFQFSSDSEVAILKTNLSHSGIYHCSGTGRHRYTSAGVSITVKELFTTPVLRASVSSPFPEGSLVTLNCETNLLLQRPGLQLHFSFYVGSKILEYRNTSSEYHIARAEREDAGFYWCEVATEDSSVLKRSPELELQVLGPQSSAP

[20] = target: T8, mouse FcγRIIb (mouse, UniProt P08101 30-207, limits assumed); test: as above
T8 construct: bought; also called mFcgRIIb; mFcgR IIb
T8 sequence (looked up): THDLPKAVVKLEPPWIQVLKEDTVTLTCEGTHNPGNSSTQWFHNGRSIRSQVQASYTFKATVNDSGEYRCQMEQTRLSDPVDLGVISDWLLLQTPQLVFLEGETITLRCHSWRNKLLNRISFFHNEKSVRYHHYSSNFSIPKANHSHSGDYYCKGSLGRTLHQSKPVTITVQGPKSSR

[21] = target: T9, mouse FcγRIII (mouse, UniProt P08508 31-215); test: as above
T9 construct: bought; also called mFcgRIII; mFcgR III
T9 sequence (looked up): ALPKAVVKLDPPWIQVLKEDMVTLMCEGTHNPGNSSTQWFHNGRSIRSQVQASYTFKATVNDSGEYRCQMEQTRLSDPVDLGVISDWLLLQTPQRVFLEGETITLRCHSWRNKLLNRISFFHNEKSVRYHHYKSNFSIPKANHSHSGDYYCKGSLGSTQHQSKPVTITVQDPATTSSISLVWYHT

[22] = target: T10, mouse FcγRIV (mouse, UniProt A0A0B4J1G0 21-203); test: as above
T10 construct: bought; also called mFcgRIV; mFcgR IV; the vendor's purification tag not given
T10 sequence: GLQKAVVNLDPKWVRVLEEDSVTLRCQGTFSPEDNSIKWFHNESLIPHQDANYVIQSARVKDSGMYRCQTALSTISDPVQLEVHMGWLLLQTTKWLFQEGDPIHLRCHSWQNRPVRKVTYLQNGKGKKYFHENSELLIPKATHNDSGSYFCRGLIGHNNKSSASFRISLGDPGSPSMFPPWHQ

[23] = target: T6, human FcRn (soluble human FcRn …); test: SPR, antibody captured by Protein L, human FcRn as analyte, pH 7.0, 25 C; remark: listed apart in the source
[24] = target: T7, mouse FcγRI; test: SPR, antibody captured by Protein L, mouse FcγR as analyte, pH 7.4, 25 C; set-up: unit not given here
[25] = target: T8, mouse FcγRIIb; test: as above; set-up: unit not given here
[26] = target: T9, mouse FcγRIII; test: as above; set-up: unit not given here
[27] = target: T10, mouse FcγRIV; test: as above; set-up: unit not given here
[28] = target: T6, human FcRn (soluble human FcRn …); test: SPR, antibody captured by Protein L, human FcRn as analyte, pH 7.0, 25 C; remark: listed apart in the source
[29] = target: T11, human FcγRIIb (human, UniProt P31994 43-217, limits assumed); test: SPR, antibody captured by Protein L, human FcγR as analyte, pH 7.4, 25 C;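 note: biacore T100 or T200 with Protein L amine-coupled on a CM4 chip, FcγRs diluted in ACES saline with polysorbate 20, buffer-only injection as blank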
T11 construct: also called hFcgRIIb; FcγIIB
T11 sequence: T1 sequence

[30] = target: T12, human FcγRIIIa(V) (human, UniProt P08637 17-208, limits assumed); test: as above
T12 construct: also called hFcgRIIIa(V); allotype V158
T12 sequence (P08637 other isoform, or with tags, fused parts or gaps limits assumed): as the sequence (P08637 other isoform, or with tags, fused parts or gaps limits assumed) above

[31] = target: T13, human FcγRIa (human, UniProt P12314 16-292, limits assumed); test: as above
T13 construct: also called hFcgRIa; hFcgRI

[32] = target: T14, human FcγRIIa(R) (human, UniProt P12318 36-217); test: as above
T14 construct: also called hFcgRIIa(R); FcγRIIa type R
T14 chain: T3 chain

[33] = target: T15, human FcγRIIa(H) (human, UniProt P12318 36-217); test: as above
T15 construct: also called hFcgRIIa(H); FcγRIIa type H
T15 sequence: T3 chain with R133H

relative KD for FcγRIIb (KD for IgG1/KD for each variant) [1]: 1 | relative KD for FcγRIIb (KD for IgG1/KD for each variant) [2]: 1 | Kd [3]: 5300 nM | Kd [4]: 5300 nM | Kd [5]: 0.32 nM | Kd [6]: 1000 nM | Kd [7]: 670 nM | Kd [8]: 2600 nM | Kd [9]: 350 nM | KD(IIb) of parent polypeptide/KD(IIb) of altered polypeptide [10]: 2.6 | relative binding [11]: 140 | relative binding [12]: 650 | relative binding [13]: 1670 | relative binding [14]: 62 | relative binding [15]: 3350 | KD(IIaH)/KD(IIb) [16]: 0.3 | KD(IIaR)/KD(IIb) [17]: 0.4
B1: IL6R-G1d/IL6R-L (antibody, human IgG1)
heavy: not shown
light: DIQMTQSPSSLSASVGDRVTITCRASQDISSYLNWYQQKPGKAPKLLIYYTSRLHSGVPSRFSGSGSGTDFTFTISSLQPEDIATYYCQQGNTLPYTFGQGTKVEIK
notes: Anti-human IL-6 receptor antibody with the G1d constant region (human IgG1 without the C-terminal Gly-Lys); also called IgG1; IgG1 (IL6R-G1d)

Kd [18]: 11 nM | BINDING AMOUNT (RU) [19]: 299 RU | BINDING AMOUNT (RU) [20]: 117 RU | BINDING AMOUNT (RU) [21]: 382 RU | BINDING AMOUNT (RU) [22]: 242 RU | Kd [23]: 11 nM | binding amount [24]: 329 | binding amount [25]: 129 | binding amount [26]: 664 | binding amount [27]: 279 | Kd [28]: 11 nM | BINDING AMOUNT (RU) [29]: 70.6 RU | BINDING AMOUNT (RU) [30]: 221 RU | BINDING AMOUNT (RU) [31]: 368 RU | BINDING AMOUNT (RU) [32]: 148 RU | BINDING AMOUNT (RU) [33]: 154 RU
B2: antibody with VH3-IgG1-F947 heavy chain and L(WT)-CK light chain (antibody)
heavy: QVQLQESGPGLVKPSETLSLTCAVSGHSISHDHAWSWVRQPPGEGLEWIGFISYSGITNYNPSLQGRVTISRDNSKNTLYLQMNSLRAEDTAVYYCARSLARTTAMDYWGEGTLVTVSSASTKGPSVFPLAPSSKSTSGGTAALGCLVKDYFPEPVTVSWNSGALTSGVHTFPAVLQSSGLYSLSSVVTVPSSSLGTQTYICNVNHKPSNTKVDKKVEPKSCDKTHTCPPCPAPELLGGPSVFLFPPKPKDVLYISRTPEVTCVVVDVSHEDPEVKFNWYVDGVEVHNAKTKPREEQYNSTYRVVSVLQPLHADWLNGKEYKCKVSNKALPAPIEKTISKAKGQPREPQVYTLPPSRDELTKNQVSLTCLVKGFYPSDIAVEWESNGQPENNYKTTPPVLDSDGSFFLYSKLTVDKSRWQQGNVFSCSVMHEALHYHVTQKSLSLSP
light: not shown
notes: T250V/M252Y/T307Q/V308P/Q311A/N434Y/Y436V; copies: 2 + 2

— patent US20200199241A1 (Chugai, published 2020)
